Source: patent US6127136A, “Detection of dioxin-like compounds by detection of transformed Ah receptor/ARNT complex” (Paracelsian, Inc., priority 1996, dated 2000)

Tests used:
[1] = molecular target: T1, transformed Ah receptor (Cavia porcellus, UniProt Q6J287); experiment: mini-Ah immunoassay (DRE affinity gel, dot-blot spot density), with or without added recombinant ARNT; assay type: biochemical, guinea pig (male Hartley, hepatic cytosol)
T1 construct: TCDD-transformed receptor captured as heterodimer on DRE-oligonucleotide gel; recombinant ARNT added in some protocols
T1 sequence (Q6J287 10-846): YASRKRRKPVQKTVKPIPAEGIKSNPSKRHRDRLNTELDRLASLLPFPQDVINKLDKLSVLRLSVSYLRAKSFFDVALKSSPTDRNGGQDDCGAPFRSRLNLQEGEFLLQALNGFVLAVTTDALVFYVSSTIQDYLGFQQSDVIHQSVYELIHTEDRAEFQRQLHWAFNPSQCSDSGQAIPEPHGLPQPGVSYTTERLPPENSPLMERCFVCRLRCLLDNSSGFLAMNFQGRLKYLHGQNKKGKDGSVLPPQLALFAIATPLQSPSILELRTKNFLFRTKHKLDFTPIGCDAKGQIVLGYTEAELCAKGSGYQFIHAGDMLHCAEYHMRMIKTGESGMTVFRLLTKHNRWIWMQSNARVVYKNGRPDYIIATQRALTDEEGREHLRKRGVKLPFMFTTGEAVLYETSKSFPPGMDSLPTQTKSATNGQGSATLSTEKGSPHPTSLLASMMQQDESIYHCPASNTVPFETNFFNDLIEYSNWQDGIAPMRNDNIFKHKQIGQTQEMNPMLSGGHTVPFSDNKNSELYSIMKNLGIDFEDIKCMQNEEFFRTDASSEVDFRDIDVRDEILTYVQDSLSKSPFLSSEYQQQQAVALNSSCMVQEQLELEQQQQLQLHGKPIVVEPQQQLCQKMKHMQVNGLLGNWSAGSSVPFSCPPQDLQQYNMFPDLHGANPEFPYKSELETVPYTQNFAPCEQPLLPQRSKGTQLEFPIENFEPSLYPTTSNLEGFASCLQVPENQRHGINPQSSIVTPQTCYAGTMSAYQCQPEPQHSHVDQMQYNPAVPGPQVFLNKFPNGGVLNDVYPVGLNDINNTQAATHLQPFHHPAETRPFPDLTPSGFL
T1 sequence (Q0WXX3 1-790 partner): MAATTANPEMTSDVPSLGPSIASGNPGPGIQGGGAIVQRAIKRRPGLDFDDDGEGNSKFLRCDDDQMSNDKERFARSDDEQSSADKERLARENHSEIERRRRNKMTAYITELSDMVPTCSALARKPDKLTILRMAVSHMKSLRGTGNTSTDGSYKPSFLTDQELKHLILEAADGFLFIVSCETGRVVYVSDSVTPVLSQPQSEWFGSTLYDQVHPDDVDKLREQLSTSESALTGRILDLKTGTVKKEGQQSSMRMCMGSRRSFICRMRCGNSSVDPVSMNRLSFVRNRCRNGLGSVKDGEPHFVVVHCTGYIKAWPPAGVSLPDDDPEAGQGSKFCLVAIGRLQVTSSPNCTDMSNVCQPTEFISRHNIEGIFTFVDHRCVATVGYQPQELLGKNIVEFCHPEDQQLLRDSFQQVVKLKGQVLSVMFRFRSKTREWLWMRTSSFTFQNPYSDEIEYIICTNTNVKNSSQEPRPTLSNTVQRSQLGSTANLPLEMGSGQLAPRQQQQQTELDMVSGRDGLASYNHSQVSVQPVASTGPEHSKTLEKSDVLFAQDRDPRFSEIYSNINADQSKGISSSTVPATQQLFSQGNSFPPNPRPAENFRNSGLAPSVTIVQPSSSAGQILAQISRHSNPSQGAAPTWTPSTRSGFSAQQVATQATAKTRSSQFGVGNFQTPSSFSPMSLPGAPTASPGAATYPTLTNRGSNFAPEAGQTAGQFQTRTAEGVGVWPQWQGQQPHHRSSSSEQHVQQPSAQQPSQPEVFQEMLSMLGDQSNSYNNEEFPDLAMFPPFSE
Experimental: (§1) Male Hartley guinea pigs weighing 300-350 g were obtained from Cornell Research Animal Resources, Cornell University, Ithaca, N.Y. Guinea pigs were anaesthetized and killed with carbon dioxide. Livers were perfused in situ with 100 mL ice-cold perfusion buffer, excised, trimmed of connective tissue, poorly perfused liver and gall bladder and weighed. The liver was minced and five mL of ice-cold HEDG per gram liver were added and the whole homogenized in a 50 mL homogenizer with teflon pestle using at 200 rpm for a total of seven strokes. Crude homogenate was centrifuged at 12,500 RPM in 50 mL tubes in a JA17 rotor in a Beckman J2-MI preparative centifuge at 4 degrees C for 20 minutes.
Procedure for the mini-Ah Immuno Assay
Preparation of Buffers: 155 uM TCDD stock was prepared by dissolving 1 mg 2,3,7,8-tetrachloro-dibenzo-p-dioxin (Cambridge Isotope Labs) in 20 mL DMSO (dimethylsulfoxide) overnight. 10 uM working dilution of TCDD was prepared by diluting 0.129 mL of the stock with 1.871 mL DMSO. 4M NaCl/HEDG was prepared by adding 116.88 g sodium chloride to 300 mL HEDG and adjusting the volume to 500 mL with HEDG. 0.3 M NaCl/HEDG was prepared by diluting 1.5 mL 4 M NaCl/HEDG to 20 mL with HEDG 0.6 M NaCl/HEDG was prepared by diluting 3.0 mL 4 M NaCl/HEDG to 20 mL with HEDG TBST was prepared by dissolving 1.18 g Tris-base, 6.35 g Tris-HCl, 8.76 g NaCL, and 2 mL Tween 20 in 800 mL water, adjusting volume to 1000 mL. Blocker was prepared by dissolving 10 g non-fat dry milk (Carnation) in 200 mL TBST. AP development buffer was prepared by dissolving 11 g Tris-base, 1.6 g Tris-HCl, 5.84 g Sodium Chloride, 10.2 g Magnesium Chloride hexahydrate, in 800 mL water and adjusting the volume to 1000 mL. BCIP stock was prepared by dissolving 100 mg BCIP (5-Bromo-4-Chloro-3-Indolyl Phosphate) in 2 mL N,N-Dimethylformamide, aliquoting into 66 uL portions, and freezing at -20 C until use. NBT stock was prepared by dissolving 250 mg NBT (Nitro Blue Tetrazolium) in 25 mL water, aliquoting into 660 uL proportions, and storing at -20 C until use. BCIP/NBT developer was prepared immediately before use by mixing one 66 uL aliquot of BCIP and one 660 uL aliquot of NBT in 20 mL AP development buffer.
(§2) For a typical mini-Ah immunoassay utilizing 12 samples, 5 mL of Transformed Ah Receptor Affinity Gel slurry described above was pipeted into a 50 mL conical tube. The slurry was washed with 40 mL HEDG and centifuged at 1000 g for 5 min, the supernatant withdrawn and discarded, the pellet washed with 40 mL HEDG, and centrifuged again. After the second centrifugation all but 5 mL of supernatant was withdrawn and the gel thus resuspended in the original volume. 10 mL guinea pig hepatic cytosol was thawed. The thawed cytosol was pooled and then divided into two 5 mL groups and treated with either 5 uL DMSO or 5 uL 10 uM TCDD in DMSO.
(§3) Assembly of transformation mixture:In the preferred embodiment of the mini-Ah immunoassay, each sample was composed of one 1.5 mL microfuge tube with the following sequential additions: 90 uL 4 M NaCl/HEDG, 400 uL Transformed Ah Receptor Affinity Gel slurry and 800 uL cytosol (treated with DMSO or TCDD as described above). The three components described above are the minimum components added at that step of the mini-Ah immunoassay. Any additional materials, such as ARNT, anti-ARNT and anti-Rabbit/alkaline phosphatase conjugate, were sometimes also added at this time as described in the specific examples. After assembly of the samples, the tubes were capped and the samples incubated at room temperature for 2 hours with gentle rocking to allow transformation of the Ah receptor to take place, interaction of transformed Ah receptor and ARNT, and binding of the transformed Ah receptor as a heteromer to the DRE oligonucleotide contained on the Transformed Ah Receptor Affinity Gel.
Isolation transformed Ah receptor: After the 2 hour incubation the mixtures were pipetted into the empty column barrels and allowed to drain. […]

[2] = molecular target: transformed Ah receptor/ARNT complex (Cavia porcellus, UniProt Q6J287); experiment: mini-Ah immunoassay with anti-ARNT detection of transformed Ah receptor/ARNT complex; assay type: biochemical, guinea pig (male Hartley, hepatic cytosol); set-up: AHR/ARNT heterodimer on DRE gel, anti-ARNT detection; in some samples recombinant baculovirus ARNT (Bradfield) added; details: Example 4
transformed Ah receptor/ARNT complex, sequence (Q6J287 10-846): as the sequence (Q6J287 10-846) above
transformed Ah receptor/ARNT complex, sequence (Q0WXX3 1-790 partner): as the sequence (Q0WXX3 1-790 partner) above
transformed Ah receptor/ARNT complex, sequence (P27540 whole entry partner): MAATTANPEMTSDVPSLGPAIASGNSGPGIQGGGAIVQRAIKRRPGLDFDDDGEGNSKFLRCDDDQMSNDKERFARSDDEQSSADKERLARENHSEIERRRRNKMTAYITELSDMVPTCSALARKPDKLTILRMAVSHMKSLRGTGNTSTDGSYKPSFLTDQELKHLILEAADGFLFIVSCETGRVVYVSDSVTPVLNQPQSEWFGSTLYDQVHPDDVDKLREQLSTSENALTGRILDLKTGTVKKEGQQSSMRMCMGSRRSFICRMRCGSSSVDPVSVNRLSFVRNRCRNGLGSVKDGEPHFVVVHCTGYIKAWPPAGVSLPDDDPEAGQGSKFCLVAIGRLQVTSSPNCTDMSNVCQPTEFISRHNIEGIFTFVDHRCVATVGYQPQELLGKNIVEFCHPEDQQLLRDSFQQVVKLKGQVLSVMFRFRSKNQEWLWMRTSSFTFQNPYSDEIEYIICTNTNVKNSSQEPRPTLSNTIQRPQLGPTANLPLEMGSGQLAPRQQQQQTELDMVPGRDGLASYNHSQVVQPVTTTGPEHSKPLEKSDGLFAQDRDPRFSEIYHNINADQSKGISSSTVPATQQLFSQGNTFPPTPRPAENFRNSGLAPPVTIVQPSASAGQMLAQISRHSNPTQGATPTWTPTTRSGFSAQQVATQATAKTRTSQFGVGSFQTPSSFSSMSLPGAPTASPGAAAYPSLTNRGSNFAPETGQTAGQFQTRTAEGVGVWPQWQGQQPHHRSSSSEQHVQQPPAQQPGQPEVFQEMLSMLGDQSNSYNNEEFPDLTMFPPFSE
Experimental: as §1, §2, §3
Immunoprobing of transformed Ah receptor: The nitrocellulose membrane was then removed from the ELIFA apparatus, rinsed briefly with water, and placed in 20 mL blocker containing test antibody. All antibodies were incubated with the nitrocellulose membrane for one hour at room temperature. When the test antibody was anti-Ah receptor/alkaine phosphatase conjugate, 100 uL anti-Ah receptor/alkaline phosphatase conjugate (1:200), per 20 mL blocker was used. When anti-ARNT was added to the transformation mixture, anti-Rabbit/alkaline phosphatase conjugate (Sigma, St. Louis, Mo.) diluted 1:1000 (20 uL to 20 mL blocker) was used to probe the membrane. When ARNT, anti-ARNT and anti-Rabbit or anti-ARNT and anti-Rabbit was added to the transformation mixture, the Immunoprobing step was eliminated.
Immunodetection and densitometry: In all cases the nitrocellulose membrane was rinsed prior to immunodetection 3 times for 5 min each with 100 mL TBST, briefly washed in AP development buffer and developed in freshly made BCIP/NBT developer for 5 min, whereupon the color reaction was stopped by washing the membrane in water.
Quantitative data were obtained by scanning the dried membrane in a Microtek 600ZS scanner in gray scale, 300 dpi, 0% brightness, 0% contrast. Densitometric measurements of the dot-blots were made using ScanAnalysis software (Biosoft, Cambridge U.K.).
Cytosol and DRE affinity gel are prepared as described above. Cytosol is dosed with 1:1000 v/v DMSO (-) or 1:1000 v/v 10 uM 2,3,7,8-tetrachlorodibenzo-p-dioxin in DMSO (+).
Immunoprobing of transformed Ah receptor is as described above with the following probes. […]

[3] = test system: Ah receptor/ARNT complex (TCDD-transformed, endogenous in cytosol); experiment: ELONA; details: EC50 is for TCDD dose, not DNA; 30 C, Ah-ELISA on neutravidin plate, anti-ARNT detection

| Substance | effect of ARNT amount on response ([1]; 0.5 ug vs 2 ug ARNT, Example 2) | effect of ARNT addition on non-TCDD dependent transformation of the Ah receptor ([1]; ARNT 2 ug/assay, Example 1) | increase of TCDD-dependent response by ARNT addition ([1]; ARNT 2 ug/assay, Example 1) | effect of ARNT addition on response [2] | EC50 [3] |
| --- | --- | --- | --- | --- | --- |
| ARNT: Purified recombinant ARNT (Ah Receptor Nuclear Translocator) | 0.5 ug arnt gave less response than 2 ug ARNT | did not increase non-TCDD dependent transformation of the Ah receptor | 354% | improves response |  |
| B-DRE (DRE-D/B-ERD) |  |  |  |  | 0.5 nM |
